{"source": "patent US20260103488A1", "target": "Lck(h) (lymphocyte-specific protein tyrosine kinase) (human) (UniProt P06239)", "sequence (P06239 whole entry)": "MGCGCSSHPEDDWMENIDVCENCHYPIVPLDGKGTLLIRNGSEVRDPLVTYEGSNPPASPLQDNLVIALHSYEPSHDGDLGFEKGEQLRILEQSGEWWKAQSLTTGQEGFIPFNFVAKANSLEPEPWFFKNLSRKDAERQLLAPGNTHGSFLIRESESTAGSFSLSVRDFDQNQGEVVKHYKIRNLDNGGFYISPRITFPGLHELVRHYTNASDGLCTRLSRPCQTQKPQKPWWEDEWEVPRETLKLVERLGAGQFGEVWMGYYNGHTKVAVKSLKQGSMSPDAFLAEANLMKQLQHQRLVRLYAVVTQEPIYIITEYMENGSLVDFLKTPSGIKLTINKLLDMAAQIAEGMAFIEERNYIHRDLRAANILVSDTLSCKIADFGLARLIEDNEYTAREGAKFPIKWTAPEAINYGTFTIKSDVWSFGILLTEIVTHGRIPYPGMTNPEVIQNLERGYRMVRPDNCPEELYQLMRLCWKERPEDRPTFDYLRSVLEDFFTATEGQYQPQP", "assay": "cell-based or functional assay"}
{"substance": "rskaknplyrrrrrrrrr (IKD14800) (peptide)", "values": [{"measurement": "Lck activity, percentage relative to control, in vitro kinase assay, peptide 1 µM (% increase in Lck activity)", "value": 490}]}
